The values that follow are results of earlier work, collected in paper PMC6557900.

The term Kd denotes the constant that tells how readily two partners part at equilibrium.

This data set deals with GHR pY487 pY487 region (Homo sapiens) (UniProt P10912).
Sequence of GHR pY487 pY487 region (Homo sapiens) (P10912 whole entry, looked up): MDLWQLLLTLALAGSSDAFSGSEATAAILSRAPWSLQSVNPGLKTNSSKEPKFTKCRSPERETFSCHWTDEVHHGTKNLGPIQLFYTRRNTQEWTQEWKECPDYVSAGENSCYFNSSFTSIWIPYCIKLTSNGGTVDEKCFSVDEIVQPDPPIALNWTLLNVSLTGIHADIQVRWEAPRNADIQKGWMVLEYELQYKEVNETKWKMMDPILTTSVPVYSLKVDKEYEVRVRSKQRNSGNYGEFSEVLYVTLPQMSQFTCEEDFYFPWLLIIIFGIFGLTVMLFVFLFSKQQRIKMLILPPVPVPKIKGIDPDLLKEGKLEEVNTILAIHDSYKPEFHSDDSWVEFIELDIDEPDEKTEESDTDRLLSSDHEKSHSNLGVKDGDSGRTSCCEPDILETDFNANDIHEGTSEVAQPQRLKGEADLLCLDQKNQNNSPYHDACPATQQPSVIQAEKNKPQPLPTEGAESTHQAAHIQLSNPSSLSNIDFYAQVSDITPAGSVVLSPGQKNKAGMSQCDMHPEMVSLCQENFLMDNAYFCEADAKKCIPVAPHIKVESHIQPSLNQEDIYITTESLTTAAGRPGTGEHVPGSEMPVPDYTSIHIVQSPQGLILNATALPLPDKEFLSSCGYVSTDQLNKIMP

Sequence of SOCS2 (O14508 whole entry): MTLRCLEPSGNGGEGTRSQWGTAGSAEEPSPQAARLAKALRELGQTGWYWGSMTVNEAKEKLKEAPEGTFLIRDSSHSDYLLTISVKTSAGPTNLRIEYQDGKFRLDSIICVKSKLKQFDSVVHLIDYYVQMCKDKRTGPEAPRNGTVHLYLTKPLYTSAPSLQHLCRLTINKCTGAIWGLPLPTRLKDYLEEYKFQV

In the case of SOCS2 (from UniProt O14508), the Kd is 11.3 µM.
